Like-named read-outs stand apart in the source and are kept apart here.
Columns and labels:
[1] = Pulsating bubble surfactometry (PBS), dynamic-bubble mode, 20 cpm; type: physicochemical
Procedure: (§1) Surfactant Sample Preparation: The lipids DPPC, POPG, and PA were individually dissolved in a chloroform/methanol solution (3/1 [v/v]) to a known concentration (˜2 or 4 mg mL^−1). Single-lipid solutions were then combined by volume at the ratio of DPPC:POPG:PA, 68:22:9 [wt:wt:wt] and to a known total lipid concentration (˜2 mg mL^−1). This well-characterized and well-known lipid formulation is considered an adequate mimic of the non-protein (lipid) fraction of LS.^45 The peptides, peptoid, and copolymers were individually dissolved in methanol from a lyophilized powder to a known concentration (1-2 mg mL^−1). For the PBS studies, the peptides, peptoids, and polymers were ‘spiked’ into the lipid mixture at 10 wt % relative to the total lipid content (9.1 absolute wt %), and to a final concentration of ˜1 mg lipid mL^−1. For comparative purposes, the inclusion of peptide/peptoid/copolymer at 10 wt % corresponds to 10 wt % SP-B1-25 (9.1 absolute wt %) relative to the total lipid content. The total combined protein fraction in natural LS is estimated to be ˜10 wt %.^18 For PBS experiments, all σ reported is the standard deviation of the mean.
(§2) Pulsating Bubble Surfactometry: A commercial PBS instrument (General Transco, Largo, Fla.), modified with a direct, real-time imaging system, which has been previously described and validated in detail,^44 was utilized to obtain both static-mode and dynamic-mode data. Samples were dried from chloroform/methanol 3/1 [v/v] in Eppendorf tubes using a DNA 120 speedvac (Thermo Electron, Holbrook, N.Y.), forming a pellet. The pellet was suspended in buffer (150 mM NaCl, 10 mM HEPES, 5 mM CaCl2, pH 6.9) to 1.0 mg lipid mL^−1, with a final known volume of ˜70 μL. The samples were then mixed with a pipette 20 times, sonicated with a Fisher Model 60 probe sonicator for two 15 second spurts, and then mixed again 20 times to form a dispersed suspension. Samples were then loaded into a small plastic sample chamber (General Transco) using a modified leak-free methodology.^43,44 The sample chamber was then placed in the instrument, surrounded by a water bath held at 37° C. A bubble with a radius of 0.4 mm was then formed, and surface area was monitored throughout the experiment.
(§3) Static-mode adsorption data were collected for 20 minutes, where the suspension was allowed to adsorb to the bubble surface over time. […] Dynamic-mode data were then subsequently obtained for each sample at the adult respiratory cycle frequency of 20 cpm for 10 minutes, with a 50% reduction in surface area per pulsation cycle. PBS experiments were repeated three to six times for each sample to ensure repeatability. Representative PBS loops are presented at five minutes of cycling, and indicate clockwise bubble expansion and counterclockwise compression (see FIGS. 6A, 6B, 6C, and 6D). Average γ±σ at selected time intervals are listed in the Examples for both data collection modes. Percent compression is defined here as 100*[(SAmax−SA20)/(SAmax)], where SAmax was the maximum SA value at expansion, and SA20 was the SA at which γ first reaches 20 mN m^−1 upon compression (FIG. 5).
Pulsating Bubble Surfactometry: Dynamic-Bubble Mode. The dynamic surfactant activity during changes in volume or film surface area provides an indication of film sustainability over time. Bubble pulsation at the approximate adult respiratory rate of 20 cycles per minute (cpm) in PBS dynamic-bubble mode at 37° C. permits a simplified evaluation of such dynamic film behavior.^44 In dynamic mode, after static-bubble adsorption, the bubble was subsequently pulsed for 10 minutes and y was recorded with respect to surface area. FIGS. 4A, 4B, 4C, and 4D depict the attained maximum and minimum γ (γmax/min) at 5 minutes of cycling for all lipid films containing polymers or positive controls. Mean γmax/min's±σ at selected time intervals for up to 10 minutes of cycling are located in Tables 4 and 5. […]

[2] = Pulsating bubble surfactometry (PBS), static-bubble mode adsorption; type: physicochemical; conditions: 37° C., mimic 10 wt % in TL, originally synthesized polymers
Procedure: as §1, §2, §3
Pulsating Bubble Surfactometry: Static-Bubble Mode. The immediate adsorptive, γ-reducing effect, and stability of the films over time at a bubble […] interface were assessed via PBS in static-bubble mode. […]

[3] = at 5 minutes, static-bubble mode, TL film; cited from earlier work
[4] = dynamic-bubble mode, cited from earlier work
[5] = 5 minutes of dynamic-bubble cycling, 20 cpm, 37° C. (FIGS. 4A-4D)
[6] = dynamic-bubble pulsation, 1 min, 37° C., mimic 10 wt % in TL, originally synthesized polymers
[7] = dynamic-bubble pulsation, 2.5 min, 37° C., mimic 10 wt % in TL, originally synthesized polymers
[8] = dynamic-bubble pulsation, 10 min, 37° C., mimic 10 wt % in TL, originally synthesized polymers

Row | Molecule | γmax [1, 5] [mN m^−1] | γmin [1, 5] | Avg % Comp: percent bubble surface area compression required to reach 20 mN m-1 upon compression ([1]; at 5 minutes of dynamic-bubble pulsation on the PBS, 37° C.) [%] | γ max Avg, 1 min [1, 6] [mN m−1] | γ min Avg, 1 min [1, 6] [mN m−1] | γ max Avg, 2.5 min [1, 7] [mN m−1] | γ min Avg, 2.5 min [1, 7] [mN m−1] | γ max Avg, 10 min [1, 8] [mN m−1] | γ min Avg, 10 min [1, 8] [mN m−1] | γ 1 min Avg (mean surface tension) ([2]; 1 min) [mN m−1] | γ 2.5 min Avg (mean surface tension) ([2]; 2.5 min) [mN m−1] | γ 5 min Avg (mean surface tension) ([2]; 5 min) [mN m−1] | γ 10 min Avg (mean surface tension) ([2]; 10 min) [mN m−1] | γeq 20 min Avg (mean surface tension) ([2]; 20 min) [mN m−1] | adsorbed γ [3] [mN m^−1] | γmax ([4]; PBS cycling loop) [mN m^−1] | γmin ([4]; PBS cycling loop) | percent compression to reach 20 mN m^−1 [4] [%]
1 | SP-B1-25: modified peptide SP-B1-25 (Cys8,11→Ala), surface-active peptide fragment of SP-B, positive control (FPIPLPYAWLARALIKRIQAMIPKG; Pulmonary surfactant-associated protein B in Tanaka lipid film; UniProt P07988 201-225, looked up, variant C8A C11A) | ~50 | near zero | 33.2 | 49.6 | <1 | 49.9 | <1 | 49.8 | <1 | 40.5 | 39.4 | 37.9 | 36.8 | 35.6 | – | – | – | –
2 | SP-B: porcine-derived lung surfactant protein B in the Tanaka lipid film (protein, UniProt P15782 1-79, looked up, Pulmonary surfactant-associated protein B in Tanaka lipid film) Pulmonary …: FPIPLPFCWLCRTLIKRIQAVVPKGVLLKAVAQVCHVVPLPVGGICQCLAERYIVICLNMLLDRTLPQLVCGLVLRCSS | – | – | – | – | – | – | – | – | – | – | – | – | – | – | ~26 | ~36 | near-zero | ~21

Source: patent US9044392B2, “Nylon-3 co-polymers and synthetic lung surfactant compositions containing same” (Wisconsin Alumni Research Foundation, priority 2010, dated 2015)
